# Laboratory results as given in PMC11742113 (Molecular Biology of the Cell, 2025).
# T1: S. aureus FtsZ, full length (Staphylococcus aureus, UniProt P0A031 1-390, FITC label, ~0.7 FITC per FtsZ)
# T1 sequence: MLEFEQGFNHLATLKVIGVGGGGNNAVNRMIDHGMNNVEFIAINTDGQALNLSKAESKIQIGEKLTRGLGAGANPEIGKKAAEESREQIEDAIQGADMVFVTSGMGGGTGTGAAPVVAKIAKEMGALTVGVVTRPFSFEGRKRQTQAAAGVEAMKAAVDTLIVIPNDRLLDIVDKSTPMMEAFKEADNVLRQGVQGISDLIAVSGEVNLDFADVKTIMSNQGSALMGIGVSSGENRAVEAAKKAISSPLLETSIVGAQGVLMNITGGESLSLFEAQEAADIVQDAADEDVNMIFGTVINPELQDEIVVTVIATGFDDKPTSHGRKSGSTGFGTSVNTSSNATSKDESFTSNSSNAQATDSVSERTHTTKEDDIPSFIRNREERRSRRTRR
# Target: T1, S. aureus FtsZ, full length
# Assay: other fluorescence titration
binder,measurement,value
S. aureus GpsB (natural protein) MSDVSLKLSAKDIYEKDFEKTMARGYRREEVDAFLDDIIADYQKMADMNNEVVKLSEENHKLKKELEELRLRVATSRPQDNKSFSSNNTTTNTSSNNVDILKRISNLEKAVFGK,Kd,53.8 ± 8 µM
